From PMC9381698, “Generation of synthetic antibody fragments with optimal complementarity determining region lengths for Notch-1 recognition” (Frontiers in Microbiology, 2022)
Residue numbers refer to the chain shown, from its start.

B1: Fab N1/F/3 (purified soluble Fab) (Fab, V domains shown)
VH: EVQLVESGGGLVQPGGSLRLSCAASGFNLYSYYIHWVRQAPGKGLEWVASISSYYGYTSYADSVKGRFTISADTSKNTAYLQMNSLRAEDTAVYYCARYWHGALDYWGQGTLVTVSS
VL: DIQMTQSPSSLSASVGDRVTITCRASQSVSSAVAWYQQKPGKAPKLLIYSASSLYSGVPSRFSGSRSGTDFTLTISSLQPEDFATYYCQQGYFTYLFTFGQGTKVEIK
notes: light chain on the modified trastuzumab framework of Library-F (Persson et al., 2013); CDRs L1 and L2 fixed; Fab heavy chain on the modified trastuzumab framework of Library-F; short CDRH3; The Fab is detected by an anti-HIS antibody; source: E. coli BL21, purified (Protein-L resin)
B2: Fab N1/F/R1 (purified soluble Fab) (Fab, V domains shown)
VH: EVQLVESGGGLVQPGGSLRLSCAASGFNIYSSYIHWVRQAPGKGLEWVASIYPYYGSTYYADSVKGRFTISADTSKNTAYLQMNSLRAEDTAVYYCARYAHFSVYGAMDYWGQGTLVTVSS
VL: DIQMTQSPSSLSASVGDRVTITCRASQSVSSAVAWYQQKPGKAPKLLIYSASSLYSGVPSRFSGSRSGTDFTLTISSLQPEDFATYYCQQWYGGYALFTFGQGTKVEIK
notes: light chain on the modified trastuzumab framework of Library-F (Persson et al., 2013); CDRs L1 and L2 fixed; clone reconstructed from NGS information; Fab heavy chain on the modified trastuzumab framework of Library-F; medium CDRH3 length; The Fab is detected by an anti-HIS antibody; source: E. coli BL21, purified (Protein-L resin)
B3: Fab N1/F/1 (purified soluble Fab) (Fab, V domains shown)
VH: EVQLVESGGGLVQPGGSLRLSCAASGFNISSYSMHWVRQAPGKGLEWVAYISSSYGSTYYADSVKGRFTISADTSKNTAYLQMNSLRAEDTAVYYCARSWALDYWGQGTLVTVSS
VL: DIQMTQSPSSLSASVGDRVTITCRASQSVSSAVAWYQQKPGKAPKLLIYSASSLYSGVPSRFSGSRSGTDFTLTISSLQPEDFATYYCQQYWGPITFGQGTKVEIK
notes: as for B1
B4: Fab N1/F/2 (purified soluble Fab) (Fab, V domains shown)
VH: EVQLVESGGGLVQPGGSLRLSCAASGFNLSSYSIHWVRQAPGKGLEWVASISSSYGYTYYADSVKGRFTISADTSKNTAYLQMNSLRAEDTAVYYCARGYYAFDYWGQGTLVTVSS
VL: B1 VL with G91W, Y92W, F93S, T94F, Y95P, F97I
notes: as for B1
B5: Fab N1/ModF/2 (purified soluble Fab) (Fab, V domains shown)
VH: EVQLVESGGGLVQPGGSLRLSCAASGFNLYSSYIHWVRQAPGKGLEWVAYISPYSGSTYYADSVKGRFTISADTSKNTAYLQMNSLRAEDTAVYYCARYGYAYHPYHSGYWYGALDYWGQGTLVTVSS
VL: DIQMTQSPSSLSASVGDRVTITCRASQSVSSAVAWYQQKPGKAPKLLIYSASSLYSGVPSRFSGSRSGTDFTLTISSLQPEDFATYYCQQVSAGYGPPITFGQGTKVEIK
notes: light chain on the modified trastuzumab framework of the Modified-F library (template: anti-MBP Fab phagemid of Library-F, Persson et al., 2013); CDRs L1 and L2 fixed; Fab heavy chain on the modified trastuzumab framework of the Modified-F library; long CDRH3; The Fab is detected by an anti-HIS antibody; source: E. coli BL21, purified (Protein-L resin)
B6: Fab N1/ModF/5 (purified soluble Fab) (Fab, V domains shown)
VH: EVQLVESGGGLVQPGGSLRLSCAASGFNISSSYMHWVRQAPGKGLEWVASIYSYSGSTYYADSVKGRFTISADTSKNTAYLQMNSLRAEDTAVYYCARSGYSGVSGSVYSYWPFYGLDYWGQGTLVTVSS
VL: B5 VL with V91G, S92P, A93Y, G94H, Y95G, G96Y, P97S, P98L
notes: as for B5
B7: phage-displayed Fab N1/F/R2 (Fab, V domains shown)
VH: EVQLVESGGGLVQPGGSLRLSCAASGFNFSSSSIHWVRQAPGKGLEWVASIYSYYGYTYYADSVKGRFTISADTSKNTAYLQMNSLRAEDTAVYYCARSWWGGSWYAALDYWGQGTLVTVSS
VL: B3 VL with Y91W, G93S, P94L
notes: as the light chain of m15; as the heavy chain of m15; Reconstructed by Kunkel mutagenesis in the MBP phagemid
B8: phage-displayed Fab N1/F/R3 (Fab, V domains shown)
VH: EVQLVESGGGLVQPGGSLRLSCAASGFNIYSSYMHWVRQAPGKGLEWVASIYPYYGYTSYADSVKGRFTISADTSKNTAYLQMNSLRAEDTAVYYCARYFSYGPFYYGSGLDYWGQGTLVTVSS
VL: B3 VL with Y91G, W92F, G93S, P94L
notes: as the light chain of m16; as the heavy chain of m16; Reconstructed by Kunkel mutagenesis in the MBP phagemid
B9: phage-displayed Fab N1/ModF/1 (Fab, V domains shown)
VH: EVQLVESGGGLVQPGGSLRLSCAASGFNLYSSYMHWVRQAPGKGLEWVAYISPSYSYTYYADSVKGRFTISADTSKNTAYLQMNSLRAEDTAVYYCARWGHSPSGVGWYGALDYWGQGTLVTVSS
VL: B5 VL with V91P, A93S, G94H, Y95S, G96A, P97A, P98L
notes: light chain on the modified trastuzumab framework of the Modified-F library (template: anti-MBP Fab phagemid of Library-F, Persson et al., 2013); CDRs L1 and L2 fixed; Fab heavy chain on the modified trastuzumab framework of the Modified-F library; The Modified-F library uses an M13 system that allows bivalent Fab display
B10: Fab N1/F/1 (Fab, V domains shown)
VH: B3 VH
VL: B3 VL
notes: Library-F Fab on a modified trastuzumab framework; Library-F Fab on a modified trastuzumab framework, CDRs L1 and L2 fixed; The Fab has a His tag (detected with anti-HIS antibody and biosensors); Library-F framework: Persson et al., 2013; source: E. coli BL21, purified (Protein-L resin)
B11: Fab N1/F/2 (Fab, V domains shown)
VH: B4 VH
VL: B1 VL with G91W, Y92W, F93S, T94F, Y95P, F97I
notes: as for B10
B12: Fab N1/F/3 (Fab, V domains shown)
VH: B1 VH
VL: B1 VL
notes: as for B10
B13: Fab N1/F/R1 (Fab, V domains shown)
VH: B2 VH
VL: B2 VL
notes: Library-F rare Fab reconstructed from NGS information, modified trastuzumab framework; Library-F rare Fab reconstructed from NGS information, modified trastuzumab framework, CDRs L1 and L2 fixed; The Fab has a His tag (detected with anti-HIS antibody and biosensors); Library-F framework: Persson et al., 2013; source: E. coli BL21, purified (Protein-L resin)
B14: Fab N1/F/R3 (Fab, V domains shown)
VH: B8 VH
VL: B3 VL with Y91G, W92F, G93S, P94L
notes: as for B13
B15: Fab N1/ModF/2 (Fab, V domains shown)
VH: B5 VH
VL: B5 VL
notes: Modified-F library Fab on a modified trastuzumab framework; Modified-F library Fab on a modified trastuzumab framework, CDRs L1 and L2 fixed; The Fab has a His tag (detected with anti-HIS antibody and biosensors); Template phagemid derived from the anti-MBP Fab of Library-F (Persson et al., 2013); source: E. coli BL21, purified (Protein-L resin)
B16: Fab N1/ModF/5 (Fab, V domains shown)
VH: B6 VH
VL: B5 VL with V91G, S92P, A93Y, G94H, Y95G, G96Y, P97S, P98L
notes: as for B15

molecular target: T1, Jagged-2 receptor ectodomain (Homo sapiens (assumed), UniProt Q9Y219); assay: ELISA; single-point Fab-ELISA for specificity: proteins immobilised at 5 ug/ml on MaxiSorp plates; purified Fab at 1 uM; detected with HRP-conjugated anti-HIS antibody, Abs450; settings: both partners purified
T1 construct: Jagged-2 ectodomain; it may be an Fc fusion like the Notch proteins; also called J2
T1 sequence (Q9Y219 27-1080): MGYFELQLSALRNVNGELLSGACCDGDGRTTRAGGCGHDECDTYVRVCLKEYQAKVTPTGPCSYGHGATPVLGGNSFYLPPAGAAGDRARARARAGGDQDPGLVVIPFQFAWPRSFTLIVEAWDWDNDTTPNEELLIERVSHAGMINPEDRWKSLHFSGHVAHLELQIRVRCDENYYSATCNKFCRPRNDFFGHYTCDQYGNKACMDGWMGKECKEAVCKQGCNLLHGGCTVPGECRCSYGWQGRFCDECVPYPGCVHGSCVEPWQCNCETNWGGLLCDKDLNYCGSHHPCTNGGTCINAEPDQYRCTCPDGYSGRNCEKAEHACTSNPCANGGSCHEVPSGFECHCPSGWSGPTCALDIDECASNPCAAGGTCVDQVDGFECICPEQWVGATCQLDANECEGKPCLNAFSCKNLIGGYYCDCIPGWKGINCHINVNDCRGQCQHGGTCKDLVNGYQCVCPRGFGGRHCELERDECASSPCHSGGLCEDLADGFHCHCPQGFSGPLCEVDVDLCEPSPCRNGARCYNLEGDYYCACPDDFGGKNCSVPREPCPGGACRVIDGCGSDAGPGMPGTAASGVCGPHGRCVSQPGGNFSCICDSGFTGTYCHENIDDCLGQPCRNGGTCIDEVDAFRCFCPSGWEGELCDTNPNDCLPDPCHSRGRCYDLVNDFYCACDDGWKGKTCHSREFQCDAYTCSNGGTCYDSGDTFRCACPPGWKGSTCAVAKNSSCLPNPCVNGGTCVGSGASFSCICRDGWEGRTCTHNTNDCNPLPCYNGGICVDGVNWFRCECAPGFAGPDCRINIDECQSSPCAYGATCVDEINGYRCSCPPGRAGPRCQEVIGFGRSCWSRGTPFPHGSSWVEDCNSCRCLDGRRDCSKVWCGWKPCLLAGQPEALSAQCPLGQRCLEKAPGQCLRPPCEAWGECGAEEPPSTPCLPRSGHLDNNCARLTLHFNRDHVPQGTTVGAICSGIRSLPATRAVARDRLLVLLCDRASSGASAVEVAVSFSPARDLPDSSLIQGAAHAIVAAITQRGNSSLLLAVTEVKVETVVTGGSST

Binder | binding result
B1 | binds
B2 | binds

molecular target: T2, recombinant Fc-tag-fused human Notch-1 extracellular domain (Homo sapiens, UniProt P46531); assay: ELISA; multi-point Fab-ELISA: target immobilised at 5 ug/ml on MaxiSorp plates; purified Fab 0.01 nM-1 uM in PT for 30 min; detected with HRP-conjugated anti-HIS antibody; EC50 from a one-site specific-binding fit; settings: both partners purified
T2 construct: Notch-1, human, extracellular domain; No catalogue number and no residue limits are printed; also called N1; source: bought: R&D Systems
T2 sequence (P46531 19-1735): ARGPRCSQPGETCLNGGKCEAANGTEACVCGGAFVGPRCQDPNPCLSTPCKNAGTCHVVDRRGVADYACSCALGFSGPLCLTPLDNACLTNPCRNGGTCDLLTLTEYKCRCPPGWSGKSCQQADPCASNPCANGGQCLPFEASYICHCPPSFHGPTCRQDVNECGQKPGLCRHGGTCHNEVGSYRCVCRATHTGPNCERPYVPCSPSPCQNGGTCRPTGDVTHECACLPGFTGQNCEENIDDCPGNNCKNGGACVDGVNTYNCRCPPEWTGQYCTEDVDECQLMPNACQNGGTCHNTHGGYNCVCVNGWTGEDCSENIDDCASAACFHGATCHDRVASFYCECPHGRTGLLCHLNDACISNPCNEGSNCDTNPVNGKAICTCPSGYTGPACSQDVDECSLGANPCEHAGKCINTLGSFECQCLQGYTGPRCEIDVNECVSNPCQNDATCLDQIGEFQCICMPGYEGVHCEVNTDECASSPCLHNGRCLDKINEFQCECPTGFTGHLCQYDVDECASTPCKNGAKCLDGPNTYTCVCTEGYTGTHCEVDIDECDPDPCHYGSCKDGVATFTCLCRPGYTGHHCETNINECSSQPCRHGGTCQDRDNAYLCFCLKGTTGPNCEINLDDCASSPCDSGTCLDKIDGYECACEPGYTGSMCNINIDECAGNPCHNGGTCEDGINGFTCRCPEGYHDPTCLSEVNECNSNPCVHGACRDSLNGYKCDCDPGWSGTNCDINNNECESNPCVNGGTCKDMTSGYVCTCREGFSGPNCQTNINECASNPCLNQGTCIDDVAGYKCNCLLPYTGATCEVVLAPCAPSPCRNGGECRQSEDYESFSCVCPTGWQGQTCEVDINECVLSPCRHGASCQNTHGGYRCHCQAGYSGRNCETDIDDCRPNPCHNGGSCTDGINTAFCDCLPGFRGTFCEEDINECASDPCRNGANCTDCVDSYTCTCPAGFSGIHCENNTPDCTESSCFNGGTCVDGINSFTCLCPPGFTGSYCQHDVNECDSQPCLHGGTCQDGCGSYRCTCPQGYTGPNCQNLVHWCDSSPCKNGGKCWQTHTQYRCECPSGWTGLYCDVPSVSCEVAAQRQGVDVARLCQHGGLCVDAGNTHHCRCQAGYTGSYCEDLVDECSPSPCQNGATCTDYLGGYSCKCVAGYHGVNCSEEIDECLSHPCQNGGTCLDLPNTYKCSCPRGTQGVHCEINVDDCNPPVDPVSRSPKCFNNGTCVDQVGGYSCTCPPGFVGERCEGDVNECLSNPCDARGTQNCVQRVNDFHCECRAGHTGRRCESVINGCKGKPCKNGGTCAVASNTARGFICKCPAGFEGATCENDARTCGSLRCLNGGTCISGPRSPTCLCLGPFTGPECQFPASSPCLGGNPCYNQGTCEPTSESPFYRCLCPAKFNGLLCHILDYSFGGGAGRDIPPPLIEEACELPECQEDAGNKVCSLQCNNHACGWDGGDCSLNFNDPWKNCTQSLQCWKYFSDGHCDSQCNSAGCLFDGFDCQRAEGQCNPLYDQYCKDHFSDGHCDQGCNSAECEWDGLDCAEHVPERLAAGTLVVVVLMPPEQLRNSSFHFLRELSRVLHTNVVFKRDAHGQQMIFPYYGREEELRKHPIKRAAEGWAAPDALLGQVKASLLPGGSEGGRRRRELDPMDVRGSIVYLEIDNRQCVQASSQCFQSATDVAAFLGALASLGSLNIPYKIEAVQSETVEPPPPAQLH

Binder | EC50
B3 | ~4 nM
B4 | ~4 nM
B1 | ~4 nM
B2 | ~4 nM
B5 | 1.7 nM
B6 | 2.4 nM

molecular target: T2, recombinant Fc-tag-fused human Notch-1 …; assay: BLI; Octet RED384; Fabs immobilised on amine-reactive generation-2 or anti-Fab CH1 biosensors, target proteins in solution at three or more concentrations; 25 C, PBS; global 1:1 fit; apparent KD (Fc-Notch proteins may dimerize, avidity); settings: both partners purified

Binder | Kd
B3 | 0.45 ± 0.05 nM
B4 | 0.45 ± 0.05 nM
B1 | 1.88 nM
B2 | 1.98 nM
B5 | 0.16 nM
B6 | 0.68 nM

molecular target: T2, recombinant Fc-tag-fused human Notch-1 …; assay: ELISA; phage-ELISA: Notch-1 and control proteins immobilised at 5 ug/ml on MaxiSorp plates; phage-displayed Fab at 10^12 PFU/ml in PBT for 30 min; detected with HRP-conjugated anti-M13 antibody, Abs450; settings: one partner purified

Binder | fold weaker phage-ELISA signal than the high-frequency Fabs | binding result
B7 | ~4 fold | 
B8 | ~10 fold | 
B9 |  | binds

molecular target: T3, recombinant Fc-tag-fused human Notch-1 extracellular domain (Homo sapiens, UniProt P46531); assay: BLI; Fabs immobilised on amine-reactive generation-2 or anti-Fab CH1 biosensors, target proteins in solution at at least three concentrations; 25°C, PBS; global fit to a 1:1 binding model; apparent constants (Fc fusions may dimerize); settings: both partners purified
T3 construct: Notch-1, human, extracellular domain; the R&D Systems product may hold only part of the ectodomain (surmise); also called N1; Fc-Notch; source: bought: R&D Systems
T3 sequence (P46531 19-1735): as above

Binder | koff | kon
B10 | 0.000118 s⁻¹ | 296000 M⁻¹ s⁻¹
B11 | 0.000123 s⁻¹ | 322000 M⁻¹ s⁻¹
B12 | 0.000218 s⁻¹ | 122000 M⁻¹ s⁻¹
B13 | 0.000154 s⁻¹ | 76400 M⁻¹ s⁻¹
B14 | 0.000484 s⁻¹ | 85300 M⁻¹ s⁻¹
B15 | 1.91e-05 s⁻¹ | 158000 M⁻¹ s⁻¹
B16 | 8.15e-05 s⁻¹ | 124000 M⁻¹ s⁻¹
